Reference: US20240287160A1

Target: EBOV GP on infectious virus (Ebola virus , Mayinga) (UniProt Q05320)
Assay: cell-based or functional assay

Chain of UniProt Q05320 (Q05320 33-676): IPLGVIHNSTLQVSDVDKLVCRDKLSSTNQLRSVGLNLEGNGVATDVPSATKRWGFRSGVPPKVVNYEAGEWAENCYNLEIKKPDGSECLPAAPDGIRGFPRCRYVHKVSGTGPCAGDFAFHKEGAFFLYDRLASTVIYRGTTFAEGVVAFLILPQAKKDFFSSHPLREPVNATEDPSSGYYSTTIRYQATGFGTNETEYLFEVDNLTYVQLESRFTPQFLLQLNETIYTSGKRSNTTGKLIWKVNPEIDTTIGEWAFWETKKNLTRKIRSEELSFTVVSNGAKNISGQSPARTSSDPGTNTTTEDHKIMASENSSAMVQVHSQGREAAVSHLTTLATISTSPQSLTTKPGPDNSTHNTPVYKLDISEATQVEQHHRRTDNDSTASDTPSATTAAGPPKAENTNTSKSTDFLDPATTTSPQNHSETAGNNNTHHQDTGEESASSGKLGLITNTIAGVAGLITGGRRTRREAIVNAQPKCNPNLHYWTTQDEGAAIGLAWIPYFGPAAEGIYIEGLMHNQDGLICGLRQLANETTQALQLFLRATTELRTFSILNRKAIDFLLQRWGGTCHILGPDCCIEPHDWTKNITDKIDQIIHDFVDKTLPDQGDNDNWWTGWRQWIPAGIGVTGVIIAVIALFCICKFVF

Binder	half maximal inhibitory concentration (IC50), neutralization of VSV/EBOV GP [µg/mL]
rEBOV-442 IgG1 (antibody, V domains shown) VH: EVQLVESGGGLVKPGGSLRLSCTGSGGTGFTFKYAGMSWVRQAPGKGPEWIGRIKSRIDGGTTDYAAPVKDRFIVSRDDSRNTLYLQMNSLKTEDTAVYYCATGSGKGPSASFGESYYYYDFINVWGKGTTVTVSS VL: ESVLTQSPGTLSLSPGERATLSCRASQSISRKYLAWYQQKPGQAPRLLIYGSSSRATGIPDRFSGSGSGTDFTLTISRLEPEDFAVYYCHQYESSPWTFGQGTKVEIK	< 1.5
rEBOV-515 (recombinant wild-type IgG1) (antibody, V domains shown) VH: QVQLHESGPGLVKPSQTLSLTCTVSGGSINSAGYYWTWIRQHPGKGLEWIGYIDYTGRTYYNPSLESRVIISIDTSKNHFSLRLTSVSAADTAVYYCARESSWVSELGRDNWGQGTLVTVSS VL: EIVMTQSPATLPVSPGEGATLSCRASQSVFTNLAWYQQKPGQAPRLLIYDASTRATGIPARFSGSGSGTEFTLTISSLQSEDFAVYYCQQYNNWPRTYGQGTRVEVK	< 1.5
